Data published in the DeepSol protein solubility set.

Assay: soluble on expression in E. coli; label from the status in PepcDB or PDB records

Soluble on expression in E. coli, not soluble:
MGSDKIHHHHHHMKILRHFLNATDPCMLQQHIRSIKQDEPANLAIAFGNIDAIVHLSQATEITQLATSWVVTSSCIAAFSDIAAEDNQNHLAILQFYDPQGSYGVASKQSSIDSIIEDSQQALTLALNAANRPGELPAFIWCSQSPGLEEGLLAGIRQLVGNNVPVFGGTAADNDVSGHWCMFDGQQTITTGFIIAVLFPSTPINYFFSSGYETTRHTAIVTSASGRKLHTLNHQPAASVYNQWRTMMALPTLANGPVLAQSTFNPLGRVILDNDEQMTLLSHPAFIYGDGTMELFSEVYQGEQLTFMHGNQTLLIQRAQTVTHFATQQLHDLYDSKPLAAIVIFCAGCMLAIKNETSQVRQGVENALGNVPFIGGFTFGEQGRFADGVNRHGNLMISAIIFGHPNE
MGSDKIHHHHHHMKIVTYSKNVFIPLTRNCRNRCDYCGFRSEEIGVMSAEEVRKILSAARGAKEALFTFGERPDEVYPEFKAMLLEMGYKSMVDYILEMNKIAVEMGFLPHTNAGILSKEEMRKLKPYNASMGLMLEQAVELECHANSPGKKPEVRIKMIRDAGKLQIPFTTGILVGIGEGREDRLYSLEIIAEIQDNYGHIQEVIVQNFKPKKGTPMENTPPPTLEEMLEAVKAAREILPQEVAIQIPPNLVDDIYPFLKAGANDVGGISNVTHDYINPESPWPEVERLERALRGEFILKERLPIYPRFVKLKWYGEALEPLIEKYSDADGYARP
MGSDKIHHHHHHMKKATLKDIAEYFGVSISTVSRALSGKPGVSSELREKILEKAREIGYTPNLMALGLKKGNTRTVGVLIPELSANFFADIVSSIEKSLFHLGYRLILCSTDDDPVKEREHLQLLLDQKVEGILSAPVNVKENKDIYNSIINHFKIPVVFFDRLVEGVDSDFVISDNREGMEILVNYLVKHGHKKIGLIHPLRGSFTGEERLKGFLLFKDSIEIREEWIRDGRSSEQGGYESFLRIMTSQERPTAIVIGNNLMTLGVLKAAKELNIKIPEDISLVSFDDAYWNEIFDPPITCVRQDPQQIGLIAATILLDRMKNRKKPSPRMQVVLKVKFVERSSVRTIKTLKDFS
MGSDKIHHHHHHMKKILFLFLAACFFFSCEKETIVIPQQHAGRTVLAFFWADNSLNSSLRDNIQTMMQGLQAMKDSAALLVYWDGEASDISWPEPCIVEYVTNGQGGINSLSKGTIDAMMADKNTSIYDLIGIGNIRKKYPPQTSTEKTVMQTVIGDMMSAYPSESYGIIFGSHGSGWLPTITGTRSIGQDGGRYSSDTALIPELAEVLRTVNPQKFDFVLFDACMMGCAEVYYELKDAARYCIASVLDIPAAGFPYASVMPYLYENAIKDYLEPICKDYIDYYNYIGWGTISAVDCNQMEGLAEAVRSVILSNQDSLKNVDTADLQQYGKGSSSFKGYAYDMLQFIGKLCGGMAPDDFTQQLKKTVIYTDYTHDPTSSLYRIDGDNYSGMGMYIPNSFTTPKYLLWNNYFKSSIAWYHASGWAETESIWGN
MGSDKIHHHHHHMKKKNTTPTPHDATFRQFLTQPDIARDFMELHLPAELRAICDLSTLKLESGSFVEDDLRQYFSDVLYSLKTTAGDGYIHVLVEHQSTPDKHMAFRLIRYAVAAMQRHLEAGHKKLPLVIPVLFYTGKRSPYPYSTRWLDEFDDTALADKLYSSAFPLVDVTVIPDDEIAGHRSMAALTLLQKHIHQRDLAELVDRLAPILLAGYLSSSQVISLVHYIVQAGETSDAEAFVRELAQRVPQHGDALMTIAQQLEQKGIEKGIQLGEQRGIEKGRSEGEREATLKIARTMLQNCIDRNTVMKMTGLTEDDLAQIRH
MGSDKIHHHHHHMKKLLLTAAITLTMPFAAHAGSEFVEGDATLAGEAELGATLTTGNTDTSSFKARLALKQELGDWENEYVFEGLYKEDTEEVTAKRYFLGVQGDYQINDVSYLFANTNYEVDPFTGYDFTSTTSAGYGHRFIDTDRMSLKAEAGPGYIYQQLDEESALAEGYDSDDSVVAHAVIDFQTKISDSSKFQQKFVADWGSKLDARSETSLTANIVGALAMKFAVIVRYNSEPLDDKESTDTETNMTLLYAF
MGSDKIHHHHHHMKKLNLQCDLFNNNNLNFSDKGPLQDVFIDKKIIKEWQAKIITHQSPIFKSGHIDVNQYSLFESSSDELNASFNPIELTPLPLSFWRWPKAMHEGPAVYFVMDEIIDSGENIILYIGETISAEKRWKGEHDCKDYISSYSDSLHKANVKAKLSIRFWLDVPTKTKERRKLEQKLIQAWLPPFNKETREIWATPFTSQIN
MGSDKIHHHHHHMKKVLGLVVSNRKLGNSEILVKEIINNIPEECNRELIRLTDLEIKPCKACYRCLQPNNACPVRDDFNFVIEKIREADALIIGVPVYFLGPHGYYKMLTDRLLGSQNYSQDTQGKPCIIVMPYGSEGWEGYSKIACMVMPKLLRMKLVDCWQIHASLPGESLLNPENISYARALGRELFNGREYHAESKECPICGSDLFRLINENQVECPICGSRGILKNNFSPDFSDSDYRRFSDHEMDEHFKGWLLEMKDRFSAEKNHLKELQKGYRNQNWWIKPCRLDEC
MGSDKIHHHHHHMKKVLVIRNDKLGDFMLAWPAFAMLKASDPSLKLTALVPTYTAEIARACPYLDEVIIDVPKGDKAAFQRLVNDIKAQRFDAMISFFSNTHNAKLAWKCRIPYRLAPATKWVQFFYNHRLVQRRSQSAKPEFAYNLDLARRFLQDQSIAVVEPRPPYLSFPKSAVDFQREFLCLQLNVDSSKKWIFVHSGSGGSANNLSLAQYAALIRGLLAQFDAYVILTAGPNESEKAHELAGLVQDARVVVYDKNKGLVDFAQSLACADLFIAGSTGPLHLSGALNVPTIGFYPSRRSATPLRWQPINDEAKHLAFCPSNDKASQTDLSKISIEEKLAKMIRFITKVWHAADK
MGSDKIHHHHHHMKKYLLYMVQVHLNFRRAELESLADLYNLSIDFSQYDANSPFFIVELENDQQAKDWIKRSILTRGIYEYWGQGTTLDELHKDIQRQSNFEQDLQLKFKHSTFKFEFECYKGNSKAKRVEQIETFRYLGFEGKIDMKHPQEVFTVIEEYTPISENVGGKTPTRIYFGRQVQMSNRSAMEKYDLKKRPYKGTTSFEAELSLVSANIAQVKPGTIMYDPFAGTGSFLVAGGHFGSLVIGSDIDGRMIRGKGAQVNISANFKKYGESSQFLDVLTMDFTNNALRNNLVIDTILCDPPYGIRESIKVLGAKDPERFLGKEDMEIDGEKAYLRRDYIPTKKPYALDSLLDDLLQYSSERLPIGGRLAFWMPTANDANIETIVPMHENLELKYNCVQEFNKWSRRLLVYINRGSTFNGSSNHGIKRSKDNFRERYFNNFN
MGSDKIHHHHHHMKLGFITSILDSWTYEEMMDFASGQGFECVEVACWPQEKAERRYAGVSHIDAERVNQDDAYAEHIVEYAKKSGVEISALAYYPNVMVADKEKSATAVEHLKQVILASKKLGVGMVTTFIGRDQTKNIQENLELVKEIWPPIIKLAEECDVKIAIENCPMLFGKEQWPGGQNLMTTPPIWREVFRILDSDHLGINYDPSHFIWQMIDYIRPLYEFKDKIFHVHYKDIKIYKDKLESCGIMAYPLEYMSPKIPGLGDVDWGKYVSALTDIGYDGYTCIEIEDKAFEDFKEKVENSLIISKRYLEQYVI
MGSDKIHHHHHHMKLLVTGATGKLGTKIVEHLLTKIEAENVIVSVRDPKKANELASRGIEVRHGDFDEPDTLQQAFAGVDRLLIISTDGEEATRIRQHTAAVEAAKAAGVGLIAYTSIANAEASQNFLARTHQVTEQLIRETGIPFLFFRNNWYLENEQSTIDAVRAGQDWLTSAGNGTVGWALQEDYAEAIATVLVDPKPTKSIYELSGPLHTQQDIAEALGQVLGRPVQVKQVDSATYTAIMQQAGVPEFLLPMLQAIQEGIAAGTLAVESQDFEHILDRPPVSLEDGLRQLVQR
MGSDKIHHHHHHMKLLWFAHRDIKHPKAGGAERTIYEVGKRLSKLNIGVNLVTVNPGNLLEYENVDGIIIYRIKGNIRTHLYVRKMIKKINPDVIIDDMGHAVPWFSPWFTDKRVIVFFRHLHAKSLPGQVNFFLAKIITLVEKLYPIIYKNNIFVTESDTSENDLIDLGIKKDRIVRIPPGVDLNLFHTGKKTDNVQLLYFGGLRKYKRPEYAITIYENLYKKIDNLKLIIVGDGILLNEIKDKVKGKNYNIVFTGKLEYDELAKIIRESWVNLHFSVTEGWGYSILEASASGTPSVAFKVPGVVDTIIDGYNGFLVNNINEFTDKILYIIKNEDKFILNSRKFAENFTWEKTADLWYKLLNGN
MGSDKIHHHHHHMKMFKLEEQKLKDLGAIITTNEIKQQPELWLETYEIYKSNKEKLSRFIDTISNNHGQFRVIFTGAGTSAYIGNSILPYLKNKNDIRKYIFEAIPTTDIVSNPYDYLKKDIPTLLISFARSGNSPESLAALNLGNKIVDNFYHLAITCNPEGELAKMTKNDENNYLLLMPSKSNDEGFAMTGSFSCMMLSAMLIFDSLEDDVEKSYINAIIEMGRNVIDRKDEIHELINKDFDRVVYLGSGGLGGLTQEAQLKLLELTAGKISTVYDSPMGFRHGPKSFIDENTLVFEFVSNCLYTRKYDLDVLEEIKRDKIAKFTCAVSVENENNFSGTKFEFKEKYNKLPDVYLAMPYILFAQTIALFVSVKVGNKPDTPSATGTVNRVVKGVTIYEY
MGSDKIHHHHHHMKNMTLDSLDMLSANILVNLYEKHSASSVAMEMNIPAPKVSRCLQHARMIFNDPLFIRKKHGLEPNEFTRQLYPLVKALVQCGEQLQQLESCHDLAASQVMVLYVSDLLIAELPQRLSSAISEAQLPISYELRTGSVDLVEDLAQGLVDLAIVSESSDRALQDDRLIVSPLTELTHLYLLCSHKHPLLQQEISLGNIANYPYLSAFGQLDKQAPDPFQRYCAQQRLSCHLAPVELGREGLAFHQLYRYLSDDKTVSLLPYSRVYEHSEQLPGLHVCCLSGMDTARLYRDQPYPRLYMLSRSGRGGAHLEWMKQEIGQLIKQNVH
MGSDKIHHHHHHMKNNHTLIIGGGIVGATLALKLAQDNKPVTLIDARPKRSEADWQQVLGQRDARVYALSLASIHLLKEVGAWQKIAASERKADYSQMQVWQLNGMGELLFGDSGDSNSSTGNSNVANNNDNTEPKMLGSMVEPAVIEHALWQRLSAPDVSQYLTVIAGHKVVDMDWLGATQGYRVTLDNGDVIDARLLVGADGRGSFVRKQAGIELDVLDYNQTAICCAIQTEKPHLATARQAMLPTGTLALLPLADITDEDKANPQHWQSIVWTLPRNQALALVAEHPCYIADKLAAASHYELGAIHKIESIASFPLAAQQAKSYVADNLVLIGDAAHGVHPLAGQGLNLGMLDVRALSKQLAHDYNRSGGTLWGANQTLRSYERLRRPHNSLMMHSFSALNWLFAGSLAQIRPVQQLRNEGMYRVSKIKPLMRLFAKQASGV
MGSDKIHHHHHHMKPIDLDKLDLLTLSILVSLYENKSATHVSRILDVPASKISRCLHTARLIFGDELFIRRKYGLVPNDYAGKIYPIAKEIVECAKHFNRLNSAEQSHNRYFELVIPGMIAYAYPRALMKAIKEHNKNIHINVSSWSSHSLESVTSDPHCIVMCCCKGPEEILCFDQKLQVEVLATMNRQYLLSCRKHPILKQDISLETIAKYPYINTFIGTQAPILNPFQEYCQAKDLSLNTEMTITSVSSLFDYLSDCQSLAITPYKAVYDMLDDDSGLHACQLSEYECNRLFEVVEPLKLVLVTHPSADNEDTAWLKQQIRELTHELI
